The data set can be described thus: label from the status in PepcDB records.
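Note: failed if final PepcDB status was selected cloned or expressed and not failed if soluble or beyond.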

Turning to “MSALRILARFVSTRTLRIRPILEIPARCKYTQHQGVKGIRNRKSFFEAQIQAGQQGEEDADLERTANSDLADMRFLDDRAYDEVAGGAMRITRDIASSQQVLILQPYVKWAAKRQNAPVDVRPEDQLAEATALIHSLPNWQVARALKVPLESLEKKTLFGSGKLVELKELVAELRQERHLTCLFVSKGTLSFAQKRFLEAEFRLPVMDRYSVVIQILRLHATSAEAKLQVAMAELPYIWAQAKDASVTQTRRQGYALTDLQKEILRTRERKLRAELDRVRRQRQLLRQKRKQQNYPIVAVVGYTNAGKTSLIKALTVEDALQPRNQLFATLDVTAHAGCLPCNLEVIYMDTVGFMSDLPTGLFECFVATLEDAMLADVIVHVQDLSHPCHAAQRSHVEATLRSLAFNVAGGDSTASQLPPIINVYNKCDLVSQEAQSSADPVHHISARAQTGLEPLLDDIEQQILTATGRRKLQMRVPSGGPEMAWLYKNAAVVETTADAENPERLMMHVVISQRTLDQFKRQFCR”, the protein production result is listed as “failed”. Turning to “MSALSSEGFFLEKCTHFFSDKKVVFFIATLCCLLWGSAYPAIKNGYELFHIADDDIPGKLVFAGYRFAFAGLLLALAVLSGRSIGRFQRGQLAQLTILGTFQTSLQYVFFYIGLAYTTGVKGSIMNATSTFFSVLLAHYLYQNDKLNINKIIGCILGFAGVMAVNINSNGMNIGFTLLGDGFVVIAAFILSASTIYGKRISQTMDPTVMTGYQLAIGGIILTISGYCTGGSLIIPDWRAVLMLGYLILLSSAAFSLWSQLLKYNRVGMVAPFNFLIPVSGTLLSALFLNESILEWKYFFALILVCSGIWLVNRVVKTRSGK”, the protein production result was “failed”. As for “MSAPADRSFAIERIFNAPVERVFRLWTDPLLVAQWWGIRDCTIPLCVLDVRVGGRWRIDMLTAGGALYRNQGSYLEVVENVRLSYRDEPDPEIREWAGKPPGRSRHTVSFTASGARTHVHFEVTLATAADRERLLALGMRGGWMQSFDRLEQLIGKGADHAG”, the entry is “failed”. Then “MSAQDTQSLGVWSDCLTLLRLELLRAVPKSAVGLGCGKKIHANGILDEIFFPLDISIASAYVKTKMNFNPPTLQHLAGRSLMKDEALAISALQDLPMQLFPPLFKDAFTSKQSNILKQMVAAWPFPCLPVGGLMETPPHLETLKAVLDGLDLLMKQKVRLRMWKLQVLDLRDAHHDFWKGYTGIQDLVSSLDVIGKTQPVGNHPIIGGKQVMTVLMNLSFTSRHPSKYIKYLCHWAKQRKNVIQVICQKLEFGAIPAYDSLNVLGVFDLGSIQELEINKCWDMCTLALLAPGLGQMKNLQKLLLKEICITVDWPWDQKTEGLCVKQIFFQFSKLRNLQHLYLNDVYFLNEHLDQVLRCLESPLETLAITHCMLSQSDMKYLSQCPSIHQLKHLDLSGVTFINLSHPFLRSLLERVTATLKTLKLNGCMIMDFQIRALLPVLSQCSQLTEVNFEENSLSMDSLKKLLQHTANLTHLTLEKYPAPDEVYDDTGNVIPHRFIQLCSELMDTLKILRQPNHVYFVSKKCLDCHKYFIYNLEAMLCSCWQ”, with “failed”.

Take “MSASHFLTIIKPASLAVLLLLAAGFWVLHGFIMPIAWAVVLAFTVWPWYEHVYQRAPCWMRGGWLPLAMTLLMMVLLMVPATFGVLVLGHEVQMLHRLLIKVQSSGIGAPDWLIQLPWVGGWIKETWSETFGNPETIKNALNALGMGTVFSYTRDLAAQVLHRFMSGFVTLLALFFIFRDGHGLGRQILDRSVRLFGSAGARYARHAVTAVRGTVNGMLLVGIGKGVVLGLGYWAVGLSQPVLLGTLTAVVALVPFAAKLVFGAASIYLIVQGHAMAGIVLVVYGFIITLIADNYVRPTLIGGAANIPFLPTLLGIFGGVEAMGFVGLFIGPTVMAILISLWRDWNDETRLPSA”: the protein production result is given as “failed”. In the case of “MSATGIKRSNLNTRPVQRDASAKQTAIKGPYGKSPGCTTSCGLRLPRKTEVTAAKLIKHLGCKFAKGLRLVVMRKKKRSPPSKVSSFSGRSQPPIIPINNDSHRSEAIEDCIQFINSSSSFTRSNSTS”, the protein production entry is listed as “failed”. Then “MSATRHRSDGHEEIVALDALPLSAAIRRRELSCREVMQAYLAQIERFNPRVNAIVSLQAESRLLTQADERDRQLARGEWLGWMHGMPQAIKDLAATSGIPTTLGSPLFAGQVPEHDAIVVERVKSSGAIVIGKTNVPEFGLGSQTYNPLFGTTRNAYDPARIAGGSSGGAAVALALRMLPVADGSDMMGSLRNPAAYNNVYGFRPSQGRVPHGPQAELFVQQLATEGPMGRSVADLARLLATQAGYDPRCPLSLRDDPRRFADDLGRDFRGARLGWLGDYAGYLPMEEGVLELCEAALGDFAELGCDVEACLPDYPLERLWRTWLVHRQWLVQGSLGELYADPARRVRLKPEAQWEVESGLGLGAAEVYRASLDRSDWYRALARLFERYDFLLLPSAQVFPFDAETAWPRQVAGRPMDTYHRWMEVVIGPTLAGLPAISVPIGFGAAGLPMGLQIIGPAQADLAVLQLAHAHEGLTRWVSRRPPAMLEAPGGI”, with “failed”; and “MSAVMARRIAVVGGGVAGLMAAWWASNYGYDVVVYEADLSSLTATRVSAGIIDPTIDISLAPVALETLSLLKRLGLGLESRLLWLHERGSCRRLERLLSDKGIIERSVAGEESIRLGRYTVNLGYGEELHVINTIIVDTGEFYSLASSASNVDIVEDSVEYVGCGSVGLKRGGSREFDAIIVAAGPWTGFISGLQALSNMLRVYRCEALIIRAGGGPFAVVDDILDFYLSIHASGDGVLGNGCCVEIASPLDGYRYSGDVLDAVISRSIERLEGLGEAELITPVSAPCVVGRDARPVLGMLPGCSRVYLLAGLDGVGVTLAPVLARLVVESIATGSQEPIPPEMAASRPTSSSESVVKEPVEEC”, with “failed”. Take “MSCYSDSITPDSFSGIVFALEGVSRSIVLINGPSGCKYYHSAVSDNQTLRQYEFDPFNYSEKWYFGQPRVPCTYLDSDDYIYGSTDKLTEALEFLRDNAPFDLLCIVNSPGAALIGDDLRGIAGRIIKEKSVVIIETPDFSRDICTGYETAAAALLDSLPLNSAARSQPNTVNILGLSIFHKYFAGDILELRRLLELCGVTVNCFLCADCDIDTIRRIPEAALNIVIHPEYGMKTARCLKERYGTPFYLCDGPPIGFSATEKFIGGICTALGCDSSLFRRESERARARAYAYISQVNSLTGLPKGVHFAVEGTYSELYAYTSFLVRYFGMIPEALSVLNEGSDCCKERLQALLNGLALPQALDRDLTETDSELVFASGNTIAKLKLRRHMFSGIEISLPSLGYIDVIPKTHIGLQGALMLTEQVLNGLAF”: the protein production entry is “failed”. In the case of “MSDAQKFQLGTIGALSLSVVSSVSIVICNKALISTLGFTFATTLTSWHLLVTFCSLHVALWMKFFEHKPFDPRAVLGFGVLNVNFSTFLVIGKTSPVTYQVLGHLKTCLVLAFGYLLLKDAFSWRNILGILVAVIGMVLYSYYCTLETQQKATETSTQLPQMDENEKDPLVSAENGSGLISDNGVQKQDPVWNSNKDFQA”, the protein production entry is “failed”. Turning to “MSDCSFIIVGGGGHARVVASTLRRLGETILGFTDPDEEATLGDGIEHLGRDKILTEKDPSKVALTMGMGSVRDTGHRAGLFTEQVENGFRFPTLIHPDAVLASEAKTKAGVQVMAGGVIQPGASLGENVIVNTNASVDHDCQIGAHSHVASGATLSGEVVLESQVHVGTGASIIQGVDVGKNSVVGAGAVVIEDVPPETVVIGVPAHPK”, the protein production entry is “failed”. Then “MSDDPEDRMLGWDESVFRDEHVFEIDWLPETFKHRDTQMETLKYALRPAVRGSRPLNVIARGPPGTGKTTAVQILFDELTAQTDVKTVRVNCQMDSTRYAVFSRLFAEIFDYEPPSSGISFKKLFSQITDKLVEEDEVLVVALDDVNYLFYESEASDTLYSLLRAHEAHSGAKIGVICVSSDLELDTIDALDTRVQSVFRPEEVYFNPYGQAEIADILGERADRGFNEGVVGPTVLDRVAELTEEQGGDLRVGIDLLRRAGMNAEMRASRSVETEDVEAAYDKSKYVHLSRRLRELSDSETALVEVIAAHDGQQAGDIYDAFSEQTDLGYTRYSEIINKLDQLDIIDADYTNVEGRGRSRELTLNYDADAVLERL”, with “failed”.

As for “MSDEGPGTGPGNGLGEKGDTSGPEGSGGSGPQRRGGDNHGRGRGRGRGRGGGRPGAPGGSGSGPRHRDGVRRPQKRPSCIGCKGTHGGTGAGAGAGGAGAGGGGRGRGGSGGRGRGGSGGRRGRGRERARGGSRERARGRGRGRGEKRPRSPSSQSSSSGSPPRRPPPGRRPFFHPVGEADYFEYHQEGGPDGEPDVPPGAIEQGPADDPGEGPSTGPRGQGDGGRRKKGGWFGKHRGQGGSNPKFENIAEGLRALLARSHVERTTDEGTWVAGVFVYGGSKTSLYNLRRGTALAIPQCRLTPLSRLPFGMAPGPGPQPGPLRESIVCYFMVFLQTHIFAEVLKDAIKDLVMTKPAPTCNIRVTVCSFDDGVDLPPWFPPMVEGAAAEGDDGDDGDEGGDGDEGEEGQELEHHHHHH”, the protein production result is “failed”. Then “MSDEHRFSRLRPLSLGLLAPLAVLLTGCGGPNLIERLSIGNWGFWGTVIIVLDLVALVDLLGDGTRSTTSTVVWALLIVFAPVLGVILYFIFGRE”, with “failed”. For the sequence “MSDFLQTTHLIIILCFLQQFLCTRMDIVIWLTCTTVPLSRRGRIGLGGSVILHVSDIHCSLRRLEDIISSLPVKPSTVAATGDFECEKAAVAIVEWSRREGVPLVAVTGNLDHAGVRRVLRSAGVLMDGRVDRVGGLVFGGVGGMDPRTSMEMLLRSLESSGLTVDVLLTHHPPHGVLDTTFAGVRAGLHDLRSLVDSLKPRAHLFGHIHESPGIESIGGTVFVNPGPAYEGRYALVRILGSVVKAELYTA”, the protein production result is reported as “failed”. On to “MSDFSNELHTQIQYSLIEKLSESERRYRELVDSLREIVFKCDRLGNLNFLNRAWTNTLGYGITDAIGSALSNFIDLDDQYLWSETLEKLQTGVEVCQKLRFYHQTGAIVWLELSAQPQSETEFSGSLINITDVYDELRLRKHAEGLLKQTNEELEARVEQRNIELIQANHDLKVTLDKLKYTQAQLVQTEKMSSLGQLVAGIAHEINNPVNFI”, for which the protein production entry is reported as “failed”. Turning to “MSDIESLGEAAGLFEEPEDFLPPPPKPHFAEYQRSHITKESKSDVKDIKLRLVGTSPLWGHLLWNAGIYTANHLDSHPELIKGKTVLELGAAAALPSVICALNGAQMVVSTDYPDPDLMQNIDYNIKSNVPEDFNNVSTEGYIWGNDYSPLLAHIEKIGNNNGKFDLIILSDLVFNHTEHHKLLQTTKDLLAEKGQALVVFSPHRPKLLEKDLEFFELAKNEFHLVPQLIEMVNWKPMFDEDEETIEVRSRVYAYYLTHEK”, the protein production entry was “failed”.

As to “MSDIISIKDIDLAKKKVFIRCDFNVPQDDFLNITDDRRIRSAIPTIRYCLDNGCSVILASHLGRPKEISSKYSLEPVAKRLARLLDKEIVMAKDVIGEDAKTKAMNLKAGEILLLENLRFEKGETKNDENLAKELASMVQVYINDAFGVCHRAHSSVEAITKFFDEKHKGAGFLLQKEIDFASNLIKHPARPFVAVVGGSKVSGKLQALTNLLPKVDKLIIGGGMAFTFLKALGYDIGNSLLEEELLEEANKILTKGKNLGVKIYLPVDVVAAPACSQDVPMKFVPAQEIPNGWMGLDIGPASVRLFKEVISDAQTIWWNGPMGVFEIDKFSKGSIKMSHYISEGHATSVVGGGDTADVVARAGDADEMTFISTGGGASLELIEGKELPGVKALRSKENE”, the protein production entry is listed as “not failed”.

For the sequence “MSDKGTDTKDKEKKAGKKKTASDRIEVRQSGVHGKGVYAIGQIAEGERVIEYKGEHISWKEALKRHPHDPNDPNHTFYFSLDDGDVIDAKFGGNRARWINHACDPNCEAREKKGRVFIHALRDIEPGEELFYDYGLVIDARYTKKLKQEYECRCGSPKCRGTMLAPKDKK”, the protein production result was “failed”. As for “MSDLAMANPAPERTVMQHVRPLPYEADFTGFLSNTVAPRWMEALRIQRMRTCFPHFDSGAPQHLCIITETTVRYRKPVRYSDAIVGKAWLQSARYSRWIIAFSFAFEFSGLPAFEGRQAGTFIDPQTHLPLPIPASLRLPADH”, the entry is “failed”.

For the origin of these results see a protein production outcome set (Wang et al. 2014).
